According to publication PMC10891947, “Gene Expression of Ethanol and Acetate Metabolic Pathways in the Acinetobacter baumannii EmaSR Regulon” (Microorganisms, 2024):
Several values for one entry are separate records, joined by “and”; a condition that tells them apart may be missing. Identical values can stand only once.

Legend:
purified protein [1] = substrate: CC(C)(COP(=O)(O)OP(=O)(O)OC[C@H]1O[C@@H](n2cnc3c(N)ncnc32)[C@H](O)[C@@H]1OP(=O)(O)O)[C@@H](O)C(=O)NCCC(=O)NCCSC(=O)CCC(=O)O; test: purified protein; assay type: biochemical, Acinetobacter baumannii; conditions: pH 8.0 potassium phosphate buffer, co-substrate acetate, one experiment
purified protein [2] = substrate: CC(=O)O; test: purified protein; conditions: pH 8.0 potassium phosphate buffer, co-substrate succinyl-CoA, one experiment

B1: DJ41_2796 (Acinetobacter baumannii ATCC 19606 = CIP 70.34 = JCM 6841) (protein)
chain: MSLSRIRLASLHDKVISAEQAAQFIENGMTVGMSGFTRAGEAKAVPQALVELAKKNPLKITLITGASLGNDLDKQLTEAGVLSRRMPFQVDNTLRRAINNGEVMFIDQHLSETVEQMRNQQLKRPDVAVIEAIAITEDGGIIPTTSVGNSASFAIFAEKVIVEINTSLSESFEGLHDIYIPTYRPTRTPIPLTKVDERIGTTAIQIDPSRIVGIVFNDTHDSPSTVTPPDDETQGIANHLIAFFEKEVAEGRLPKNLGPLQAGIGSIANAVLTGLKDSNFEDLIMYSEVLQDCTFELIDAGKMKFASGSSITLSAKCGEKVFGNIEAYKDKLVLRPQEISNHPELVRRLGIIGINTALEFDIYGNVNSTHVCGTKMMNGIGGSGDFARNAHLAIFVTKSIAKGGDISSIVPMVSHVDHSEHDVDILVTEQGLADLRGLAPRERARAIIDNCVHPLYRDALNDYFDRACAKGGHTPHLLREALSWHANFEETGQMLQPTPVAKSA
Purified protein [1]
  Km: 0.3418 mM
  Vmax: 0.035 µmol/min
  kcat: 6.99 s⁻¹
  kcat/Km: 20500 M⁻¹ s⁻¹
Purified protein [2]
  Km: 14.74 mM and 39 mM
  Vmax: 0.0335 µmol/min and 0.0415 µmol/min
  kcat: 6.7 s⁻¹ and 8.31 s⁻¹
  kcat/Km: 455 M⁻¹ s⁻¹ and 213 M⁻¹ s⁻¹
